Test system: F1*sub RNA substrate (template-directed ligation)
Experiment: fraction ligated after 30 min (ligated reads / total reads); higher = more ligase activity; sequences stand for … in GAGACCGCAACTGAAAAGTTGT…AGTTCTGCACGTAGAAGCAAAAGGC
Conditions: 42 °C
Method: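 Chip-synthesised pool of F1* ligase ribozyme variants (all single and double substitutions, single, double and triple deletions in the catalytic core and GAA bulge, plus designed variants) was transcribed with T7 and reacted as a pool with excess substrate F1*sub for 30 min at 42 C in 50 mM EPPS pH 8.5, 25 mM MgCl2. Ligated and unligated bands were separated by PAGE, barcoded by RT and deep sequenced; fraction ligated = ligated reads / total reads per variant, relative activity = FL / FL of wild type (0.826). Sequences are the DNA template of the ribozyme.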

Sequence	fraction ligated
TATCACTTGTGTAAACACTTTGGAGGGTTGA [3d1750]	0.0713
ATCACTTGTCGTAAACACTTTGGTGGGTTGA [3d216]	0.0249
TATCACTTGTCGTAAGACATTTGTGGGTTGA [3d2215]	0.00941
TACACTTGTCGTAAGACACTTGGATGGGTTG [3d720]	0.106
TTCACTTGTCGTAAGACACTTGGATGGGTTA [3d489]	0.0495
TATCACTTGCGTAGACACTTTGGATGGGTTGA [2d166]	0.835
TTCACTTGTCGTAAGACATTTGGATGGTTGA [3d481]	0.25
TTCACTTGCGTAAGACACTTTGGATGGGTTGA [2d30]	0.777
TATCACTTGTCGTAAGCACTTTGGTGGGTTG [3d2144]	0.0518
TATCACTTGTCTAAACACTTGGATGGGTTGA [3d1839]	0.776
TATCCTTGTCTAAGACCTTTGGATGGGTTGA [3d1020]	0.786
TATACTTGTCGTAAGACACTTTGGAGGTTGA [3d942]	0.00359
TATCCTTGCGTAAGACATTTGGATGGGTTGA [3d992]	0.792
TACACTTGCGTAAGACACTTTGGAGGGTTGA [3d613]	0.044
TATCCTTGTCGTAAGACACTGGATGGGTTGA [3d1097]	0.756
TATCACTGTCGTAAGACACTTTGGATGGGTTA [2d145]	0.773
TACACTTGTGTAAGCACTTTGGATGGGTTGA [3d621]	0.101
ATCACTGTCGTAAGACACTTTGGTGGGTTGA [3d119]	0.108
TTACTTGTCGTAAGACACTTTGGTGGGTTGA [3d293]	0.031
TATCACTTTCGAAGACACTTTGATGGGTTGA [3d1500]	0.767
TATCACTTGTCGTAAGACCTTTGGAGGTTGA [3d2200]	0.049
TATCACTGTCGTAAGACCTTTGGATGGGTTG [3d1432]	0.835

Sequence	fraction ligated
ATCACTTGTGTAAGACACTTTGGATGGGTTGA [2d9]	0.853
TATCACTTGTCGTAAGACTTTGGTGGGTTGA [3d2109]	0.0656
TATCATTGTCGTAACACTTTGGATGGGTTGA [3d1215]	0.815
TATCACTTGTCGTAAACACTTTGAGGGTTGA [3d2090]	0.0504
TATCACTTGTTAAGACACTTTGGAGGGTTGA [3d1714]	0.111
TATCACTTGTCGTGACACTTTGGATGGGTTG [3d1992]	0.826
TATCATTTCGTAAGCACTTTGGATGGGTTGA [3d1145]	0.786
TTATTGTCGTAAGACACTTTGGATGGGTTGA [3d278]	0.076
TTCACTTGTCTAAGACACTTTGGATGGGTTA [3d414]	0.344
TATACTTTCTAAGACACTTTGGATGGGTTGA [3d797]	0.562
TATCACTTGTCGTAAACATTGGATGGGTTGA [3d2074]	0.804
TATCACTTGTCGTAAACATTTGGAGGGTTGA [3d2077]	0.0367
TATCACTTGCGAAGACATTTGGATGGGTTGA [3d1618]	0.814
TATCACTGTCGTAAGACACTTGGTGGGTTGA [3d1442]	0.692
TACACTTGTCGTAAGACATTTGGATGGGTTGA [2d61]	0.472
TATCACTTGTCGTAAGCACTTTGGTGGTTGA [3d2142]	0.118
TATCACTTGTCGTAAGCACTTTGGAGGGTTA [3d2146]	0.134
ATCACTTGTCGTAACACTTTGGATGGGTTGA [3d199]	0.779
TTACTTGTCGTAAGACACTTTGGAGGGTTGA [3d294]	0.125
TATCACTTGTCGTAAGACTTTGGATGGGTTGA [2d244]	0.821
TTCACTTGTCGTAAGACACTTTGAGGGTTGA [3d493]	0.0469
TTCACTTGTCTAAGACACTTTGGATGGGTTGA [2d32]	0.768

Sequence	fraction ligated
TTCATTGTCGTAAGAACTTTGGATGGGTTGA [3d326]	0.149
TATCATTGTCGTAGACACTTGGATGGGTTGA [3d1220]	0.752
TATCACTTGCGTAGCACTTTGGATGGGTTGA [3d1628]	0.859
TATCACTTGTCGTAGACACTTTGGTGGGTTA [3d2050]	0.0674
TATCACTTGTCGTAAACCTTTGGATGGTTGA [3d2071]	0.256
TATCACTGTCGAAACACTTTGGATGGGTTGA [3d1373]	0.83
TATCACTTGTCGTAAGCACTTTGGATGGGTTA [2d252]	0.737
TATCACTGCGTAAGCCTTTGGATGGGTTGA [s2]	0.814
TACACTTGTCGTAAGAACTTTGGATGGGTTGA [2d59]	0.0167
TATCACTTGTCGAAACACTTTGATGGGTTGA [3d1919]	0.721
TATCACTTGTCGTAAGAACTTTGGAGGTTGA [3d2176]	0.0186
TATCACTTGTCGAAGACACTTTGGATGGTTA [3d1977]	0.364
TATATTGCGTAAGACACTTTGGATGGGTTGA [3d760]	0.355
TTCATTGCGTAAGACACTTTGGATGGGTTGA [3d319]	0.11
TATCATTGTGTAAGAACTTTGGATGGGTTGA [3d1177]	0.856
TATCACTTGTCGTAAGACACTGGATGGGTTGA [2d276]	0.776
TTCACTTGTCGTAAGAACTTTGGAGGGTTGA [3d466]	0.0901
ACACTTGTCTAAGACACTTTGGATGGGTTGA [3d31]	0.441
TATCCTTGTCAAGACACTTTGGATGGGTTGA [3d1015]	0.791
TATCCTTGTCGTAAGACACTTTGGAGGTTGA [3d1114]	0.00283
TATCCTTGTCGTAAACACTTGGATGGGTTGA [3d1058]	0.721
TATCACTTGTCGTAAGACCTTGATGGGTTGA [3d2184]	0.766

Sequence	fraction ligated
ATCACTTGTCGAAGACACTTTGGTGGGTTGA [3d193]	0.0564
TACACTTGTCGTAAGCACTTTGATGGGTTGA [3d686]	0.0278
TATCACTTGTCGTAGACACTTTGGATGGGTT [3d2057]	0.819
ATCACTTGTCTAAGACACTTTGGATGGTTGA [3d182]	0.676
TATCACTTGTCGTAAACACTTTGATGGGTTGA [2d238]	0.763
TATCCTTGTCGTAGACCTTTGGATGGGTTGA [3d1046]	0.773
TATCACTTGTGAAGAACTTTGGATGGGTTGA [3d1721]	0.851
ATCATGTCGTAAGACACTTTGGATGGGTTGA [3d86]	0.722
ATACTTGTCGTAAGACACTTTGGAGGGTTGA [3d63]	0.0364
TATCACTTGTGTAGAACTTTGGATGGGTTGA [3d1734]	0.822
TATCACTTGTCGTAAGACATTTGGAGGGTTG [3d2226]	0.00325
ATACTTGTCGTAAGACACTTTGGATGGGTTG [3d66]	0.244
TATCACTTTCGTAAACACTTTGGAGGGTTGA [3d1525]	0.0183
TATCACTTGTCGTAAGAATTGGATGGGTTGA [3d2152]	0.785
TATCACTTTCGTAGCACTTTGGATGGGTTGA [3d1508]	0.826
TATCACTTGTCGAAGACACTTTGGGGGTTGA [3d1970]	0.133
TATACTTGTCGTAAGACACTTTGGTGGTTGA [3d939]	0.00845
TACACTTGTCGAAGAACTTTGGATGGGTTGA [3d649]	0.195
TATACTTGTCGTAAGACCTTTGGATGGGTTA [3d916]	0.059
TATCACTTGTCGAAGACATTTGATGGGTTGA [3d1951]	0.329
TATCACTTGTCGTAGACATTTGATGGGTTGA [3d2029]	0.309
TATCACTTGTCTAAGACACTTGGATGGGTTG [3d1884]	0.781

Sequence	fraction ligated
TATCCTTGTCGTAAGACCTTTGATGGGTTGA [3d1084]	0.762
TATCACTTTCGTAGACACTTTGGTGGGTTGA [3d1514]	0.0546
TATACTTGTCGTAAGACACTTTGATGGGTTGA [2d84]	0.794
TATCACTGTCGTAAGACATTTGGATGGGTTA [3d1438]	0.792
TATACTTCGTAAGACACTTTGGATGGGTTGA [3d778]	0.724
TCACTTGTCGTAAGACACTTTGGATGGGTTGA [2d1]	0.796
TATCACTTGTCGTAAGAATTTGATGGGTTGA [3d2153]	0.757
TATCACTTGTCGTAAGCATTTGGTGGGTTGA [3d2123]	0.0465
ATCACTGTCGTAAGACACTTTGGATGGGTTA [3d122]	0.298
TACACTTGTCGAAGACACTTTGGATGGGTTA [3d657]	0.13
TATCACTTGTCGTAAGAACTTTGGATGGGTTA [2d260]	0.799
TATCACTTGTCGTAGACACTTTGGTGGGTTG [3d2051]	0.101
TATCACTGCTAAGACACTTTGGATGGGTTGA [3d1328]	0.81
TATCACTTGTCGAAGCACTTTGGTGGGTTGA [3d1930]	0.0884
TATCACTTGTCGTAAGACACTTGGAGGGTTGA [2d279]	0.0154
TTCACTTGTCGTAAGACACTTGATGGGTTGA [3d485]	0.0622
TATCACTTGTCGAAACACTTTGGTGGGTTGA [3d1920]	0.0386
TATCCTGTCGTAAGACACTTGGATGGGTTGA [3d961]	0.794
TATCATTGTCGTAAACATTTGGATGGGTTGA [3d1229]	0.798
TACCTTGTCGTAAGACACTTTGGATGGTTGA [3d544]	0.233

Source: the supplement of paper PMC6755084
